Experimental data as given in patent US20260265404A1 (FRED HUTCHINSON CANCER CENTER, published 2026).
Positions count from the first letter of the chain named. Blank lines part the entries; values can stand above or below the binder they belong to.

Key:
[1] = target: T1, human full-length CD33 (CD33^FL) (human, UniProt P20138 18-364); experiment: flow cytometry on REH subline expressing CD33^FL
T1 construct: also called Siglec-3

[2] = target: T1, human full-length CD33 (CD33^FL); experiment: flow cytometry on parental CD33+ ML-1 cells against ML-1 CD33 KO cells (endogenous CD33)

T1 sequence (P20138 18-364): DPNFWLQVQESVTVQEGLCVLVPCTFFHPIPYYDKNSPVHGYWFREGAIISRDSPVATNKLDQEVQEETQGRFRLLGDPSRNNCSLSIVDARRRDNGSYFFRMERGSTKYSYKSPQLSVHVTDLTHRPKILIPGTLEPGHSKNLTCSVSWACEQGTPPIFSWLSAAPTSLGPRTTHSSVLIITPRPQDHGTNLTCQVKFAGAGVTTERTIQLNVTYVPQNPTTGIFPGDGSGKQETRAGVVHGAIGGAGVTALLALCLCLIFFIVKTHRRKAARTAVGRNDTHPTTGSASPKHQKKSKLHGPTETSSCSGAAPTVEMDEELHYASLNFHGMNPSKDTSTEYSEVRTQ

binding result [1]: binds
B1: 2D3 antibody (human CD33V-set antibody clone, hybridoma-derived) (antibody, V domains shown)
VH: EVQLLESGGGLVQPGGSLSLSCAASGFTFSIYAMSWVRQAPGKGLEWVSAISDSGGTTYYADSVKGRFTISRDNSKNMLYLEMNSLRAEDTAIYYCAKRTRYFNGMDVWGQGTTVTVSS
VL: EIVMTQSPATLSLSPGERATLSCRASQSGSSSFLSWYQQKPGQAPRLLIYGASTRATGIPARFSGSGSGTDFTLTISSLQPEDFAVYYCQQDYNLPFTFGPGTKVDIK
notes: also called clone 2D3

binding result [1]: binds
B2: 1H8 antibody (human CD33V-set antibody clone, hybridoma-derived) (antibody, V domains shown)
VH: QVQLVESGGGVVQPGGSLRLSCAASGFTFGSYGMHWVRQAPGKGLEWVAVIWYDGSNEYYADSVKGRFTVSRDNSKHTLYLQMNRLRAEDTAVYYCARDLDYDSSGGDYWGQGILVLVSS
VL: EIVLTQSPDFQSVTPKEKVTITCRASQNIGGNLHWYQQKPDQSPKLLIRYATQPFSGVPSRFGGSGSGTDFTLTINSLEAEDAATYYCHQSSSLPLTFGGGTKVEIK
notes: also called clone 1H8

binding result [1]: binds
B3: 1H10 antibody (human CD33^PAN antibody clone, hybridoma-derived) (antibody, V domains shown)
VH: QVQLVQSGAEVKKPGASVKVSCKGSGYIFTSYDMHWVRQAPGQGLEWMGIIDPSGGSTSYAQKFQGRVTMTRDTSMSTVYMELSSLRSEDTAVYYCTRDYSWSYFDYWGQGTLVTVSS
VL: AIQMTQSPSSLSASVGDRVTITCRASQGIRIYLGWYQQKPGKAPKLLIYATSSLQSGVPSRFSGSGSGTDFTLTISSLQPEDFATYYCLQDYNYPWTFGQGTKVEIK
notes: also called clone 1H10

binding result [2]: binds
B4: 1A9 antibody (human CD33^PAN antibody clone, hybridoma-derived) (antibody, V domains shown)
VH: EVQLVESGGGLVQPGGSLRLSCAASGFTFSIYDMHWVRQATGKGLEWVSAIGTAGDTYYAGSVKGRFTISRENAKNSLYLQMNSLRAGDTAVYYCAREYSGYYFDYWGQGTLVTVSS
VL: B3 VL with G28D, I31N, Y32D, L46I, A50G, T51A, L73F, D91E, W96C, V104L
notes: also called clone 1A9

binding result [2]: binds
B5: 1E6 antibody (human CD33^PAN antibody clone, hybridoma-derived) (antibody, V domains shown)
VH: QVQLVESGGGVVQPGRSLRLSCAASGFTFSSYDIHWVRQAPGKGLEWVAVIWYDGSHNYYSDSVKGRFTISRDNSKNTLYLQMNSLRAEDTAVYYCARDYSGSYYDYWGQGTLVTVSS
VL: B3 VL with I31N, Y32D, T51A, S53N, N93S, W96R
notes: also called clone 1E6

binding result [2]: binds
B6: 1D2 antibody (human CD33^PAN antibody clone, hybridoma-derived) (antibody, V domains shown)
VH: B5 VH with H57Q, N58K, S61A
VL: B3 VL with I31N, Y32D, K45E, T74I, N93S, W96R
notes: also called clone 1D2

binding result [2]: binds
B7: 1B9 antibody (human CD33^PAN antibody clone, hybridoma-derived) (antibody, V domains shown)
VH: B5 VH with T28I, Y105F
VL: B3 VL with G28D, I31N, Y32D, Q37L, K39R, T51A, N93S, W96R, K103T
notes: also called clone 1B9
